Target: bacterially expressed recombinant Mch4 (GST-Mch4 fusion protein) (human)

In the case of DEVD-CHO (tetrapeptide DEVD aldehyde), the Ki is reported as 0.014 µM.

From patent publication US6897296
